The text below walks through data of patent US6635429, “Heterodimeric nuclear receptors proteins, genes encoding same, and usage thereof” (Institut National de la Sante et de la Recherche Medicale).

Details in all cases: protein: extract; tags: yeast-expressed
The target of data set [1] is T1, RXRα (yeast) (Mus musculus, UniProt P28700 SEQ:1-467).
T1 sequence: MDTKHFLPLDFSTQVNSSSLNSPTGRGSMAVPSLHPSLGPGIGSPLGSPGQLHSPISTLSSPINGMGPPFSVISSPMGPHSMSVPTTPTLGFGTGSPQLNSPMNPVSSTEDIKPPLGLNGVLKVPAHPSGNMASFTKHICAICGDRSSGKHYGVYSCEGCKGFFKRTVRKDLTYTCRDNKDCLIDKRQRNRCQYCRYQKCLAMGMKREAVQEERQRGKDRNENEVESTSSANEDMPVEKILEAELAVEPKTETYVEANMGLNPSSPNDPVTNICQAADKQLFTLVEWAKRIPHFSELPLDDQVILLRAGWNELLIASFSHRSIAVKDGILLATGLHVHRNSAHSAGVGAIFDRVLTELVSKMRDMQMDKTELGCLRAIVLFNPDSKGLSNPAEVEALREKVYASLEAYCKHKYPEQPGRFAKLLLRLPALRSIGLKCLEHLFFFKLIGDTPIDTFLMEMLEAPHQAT
Put plainly: cell_activity; yeast, ligand dependent; low absolute activity. The text has this: (§1) FIG. 13A, Sequences of the response elements used in this study consisting of a direct repeat of a hexamer sequence spaced by one to five base pairs (DR1–DR5), or an inverted repeat of the same hexamer with no spacing (IR0). The hexamer repeats are indicated by arrows and the spacer sequences are presented in lower case. FIG. 13B, Transactivation of URA3 reporter genes containing the different elements by homodimers and heterodimers of RARα and RXRα. The sequences represented in FIG. 13A were cloned into the promoter of a URA3 reporter gene carried on a centromeric plasmid to generate the DRn-URA3 reporter series and IR0-URA3. The reporters were introduced into a yeast strain containing multicopy vectors expressing RARα, RXRα or no receptor. […] "Control" indicates the basal reporter activity in the absence of receptors (using "empty" expression vectors), and the experiments using only one receptor were performed in the presence of the corresponding "empty" vector. The white, hatched and black columns indicate the reporter activity in the presence of no ligand, all-trans RA and 9-cis RA, respectively. The reporter activities are given as units of OMPdecase activity per minute per mg protein, and the values represent the average of at least 2 experiments using at least 2 different clones per experiment. […] Similar amounts of each probe (50, 000 cpm) were used in the assays.

Data set [2] deals with T2, RARα1/RXRα heterodimer (yeast) (Homo sapiens/Mus musculus, UniProt P10276;P28700 P10276:1-462,P28700:1-467).
T2 sequence 1: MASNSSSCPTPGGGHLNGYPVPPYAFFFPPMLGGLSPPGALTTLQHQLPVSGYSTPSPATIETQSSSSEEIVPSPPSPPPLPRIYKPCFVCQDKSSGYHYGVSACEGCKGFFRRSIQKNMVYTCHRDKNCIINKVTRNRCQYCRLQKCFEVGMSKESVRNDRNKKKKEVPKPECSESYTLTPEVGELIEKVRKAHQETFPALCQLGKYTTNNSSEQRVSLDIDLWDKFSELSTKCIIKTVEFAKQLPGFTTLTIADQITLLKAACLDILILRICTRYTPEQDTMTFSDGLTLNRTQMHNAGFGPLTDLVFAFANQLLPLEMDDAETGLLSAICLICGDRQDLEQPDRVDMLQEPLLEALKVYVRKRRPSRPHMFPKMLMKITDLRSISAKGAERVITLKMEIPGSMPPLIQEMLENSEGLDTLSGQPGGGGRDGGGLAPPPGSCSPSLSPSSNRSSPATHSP
T2 sequence 2: T1 sequence
As to the kind of experiment: cell_activity; yeast, 500 nM 9-cis RA; low absolute activity.
Source text: as §1

Data set [3] concerns the target T2, RARα1/RXRα heterodimer (yeast). As to the kind of experiment: cell_activity; yeast, 500 nM 9-cis RA.
Source text: as §1

The target is the same in data set [4]. Put plainly: cell_activity; yeast URA3 reporter, 500 nM 9-cis RA.
Source text: as §1

Data set [5] deals with T1, RXRα (yeast). Put plainly: cell_activity; yeast, 9-cis RA.
Source text: as §1

B1: IR0 (dsDNA)
DNA 1: AGGTCATGACCT
DNA 2: AGGTCATGACCT
As for B1, the figures for the activity (with RXRα (yeast) [1]; in data set [2]) were 20 fold over control and 40 fold over control, respectively.

B2: DR3 (dsDNA)
DNA 1: AGGTCAGCGAGGTCA
DNA 2: TGACCTCGCTGACCT
In data set [3], B2 came in with an activity of about 10 fold over control.

B3: DR5 (dsDNA)
DNA 1: AGGTCAGCGAGAGGTCA
DNA 2: TGACCTCTCGCTGACCT
As for B3, the activity in data set [4] turned out to be 60 fold over control.

B4: DR1 (dsDNA)
DNA 1: AGGTCAGAGGTCA
DNA 2: TGACCTCTGACCT
For the molecule B4, the activity in the data set with RXRα (yeast) [5] was at least 30 fold; in data set [4] it was 36 fold over control.

B5: DR4 (dsDNA)
DNA 1: AGGTCAGCGAAGGTCA
DNA 2: TGACCTTCGCTGACCT
Take B5: in data set [3], the activity was about 10 fold over control.

B6: DR2 (dsDNA)
DNA 1: AGGTCAGCAGGTCA
DNA 2: TGACCTGCTGACCT
With B6, the activity in data set [3] is about 10 fold over control.
